For one substance, absorbance (412 nm filter) and absorbance results are on record in patent publication US20040115215A1.

Assay [1] deals with Crotalus durissus terrificus venom. The assay can be described thus: ELISA, C.d.t. venom-coated; dilution 1:500. Background: In an ELISA, binding on a coated surface is turned into a signal by an enzyme label.
The target is the same in assay [2]. The experiment in a line: ELISA, C.d.t. venom-coated; dilution 1:2,500.
Assay [3] shares this target. The assay can be described thus: ELISA, C.d.t. venom-coated; undiluted.
The target is the same in assay [4]. The assay can be described thus: ELISA, C.d.t. venom-coated; dilution 1:3125.
Assay [5] shares this target. The experiment in a line: ELISA, C.d.t. venom-coated; dilution 1:25.
Assay [6] has the same target. The assay can be described thus: ELISA, C.d.t. venom-coated; dilution 1:125.
For assay [7] the target is unchanged. The assay can be described thus: ELISA, C.d.t. venom-coated; dilution 1:3125. This is another data set of the same source.
For assay [8] the target is unchanged. The assay can be described thus: ELISA, C.d.t. venom-coated; dilution 1:5.
Assay [9] shares this target. The experiment in a line: ELISA, C.d.t. venom-coated; dilution 1:125. The source holds these as a separate data set.
For assay [10] the target is unchanged. The experiment in a line: ELISA, C.d.t. venom-coated; dilution 1:25. This is another data set of the same source.
Assay [11] shares this target. The experiment in a line: ELISA, C.d.t. venom-coated; dilution 1:62,500.
Assay [12] shares this target. The assay can be described thus: ELISA, C.d.t. venom-coated; dilution 1:12,500.
Assay [13] shares this target. The assay can be described thus: ELISA, C.d.t. venom-coated; dilution 1:625.
For assay [14] the target is unchanged. The experiment in a line: ELISA, C.d.t. venom-coated; dilution 1:625. This is another data set of the same source.
Assay [15] shares this target. The assay can be described thus: ELISA, C.d.t. venom-coated; dilution 1:312,500.

As for “preimmune IgY (from unimmunized hens or supermarket eggs) (antibody)”, the absorbance (412 nm filter) was 0.005 OD in assay [1]; 0.004 OD in assay [2]; 0.001 OD in assay [11]; 0.001 OD in assay [12]; 0.01 OD in assay [15]. Also, the absorbance was 0.003 OD in assay [3]; 0.002 OD in [4]; 0.016 OD in [5]; 0.003 OD in [6]; less than 0 OD in [7]; less than 0 OD in assay [8]. The absorbance in [9] is less than 0 OD; in [10], 0 OD; in assay [13], less than 0 OD; in assay [14], 0 OD.
